The target in assay [1] is T1, membrane-bound full-length human CD89 on HEK293F cells (human, UniProt P24071 22-287).
T1 construct: 2 or transient transfectants; also called membrane human CD89; human FcaRI
The assay can be described thus: FACS HEK293F-huCD89.
Protocol: After extensive washing in PBS/BSA/NaN₃, cells were subsequently incubated with 1:200 diluted PE-conjugated goat anti-human IgG Fcy-specific antibodies (Jackson ImmunoResearch) for 30 minutes at 4° C. After extensive washing in PBS/BSA/NaN₃, cells were fixed in 2% formaldehyde in PBS/BSA/NaN₃ for 30 minutes at 4° C.

For assay [2], the target named is T1, membrane-bound full-length human CD89 …. The assay can be described thus: FACS HEK293F-huCD89, 10 ug/mL; competitor PE-A3.
Protocol: Then, 10 µL/tube (i.e., 0.1 × 10⁶ cells) of these cells were incubated with or without 100 µL purified mouse anti-human CD89 antibody at 10 µg/mL (in PBS/BSA/NaN₃) for 30 minutes at 4° C. […] After extensive washing in PBS/BSA/NaN₃, cells were fixed in 2% formaldehyde in PBS/BSA/NaN₃ for 30 minutes at 4° C.
The target of assay [3] is T2, membrane full-length cynomolgus monkey CD89 on HEK293F cells (cynomolgus monkey).
T2 construct: also called cynoCD89; cynomolgus EC1-CD89
T2 chain: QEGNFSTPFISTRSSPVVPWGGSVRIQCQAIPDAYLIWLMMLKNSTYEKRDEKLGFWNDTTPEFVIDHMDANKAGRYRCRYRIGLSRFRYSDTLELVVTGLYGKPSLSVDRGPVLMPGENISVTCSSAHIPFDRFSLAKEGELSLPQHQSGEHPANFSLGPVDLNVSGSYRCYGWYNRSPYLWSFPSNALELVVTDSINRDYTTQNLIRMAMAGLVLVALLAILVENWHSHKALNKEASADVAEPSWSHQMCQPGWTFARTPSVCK
The assay is described as follows: FACS, transiently transfected HEK293F. (In general: Flow cytometry measures light scatter and fluorescence of single cells or particles in a stream.)
Protocol: To this end, transient transfected HEK293F cells were put at 10 x 10⁶ cells/mL in ice-chilled phosphate-buffered saline containing 0.1% BSA (Sigma)/0.05% NaN₃ (PBS/BSA/NaN₃) supplemented with 50 µg/mL human IgGs (blocking FcY receptors; Sigma) for 10 minutes at 4° C. Then, 10 µL/tube (i.e., 0.1 × 10⁶ cells) of these cells were incubated with or without 100 µL purified mouse anti-human CD89 antibody at 10 µg/mL (in PBS/BSA/NaN₃) for 30 minutes at 4° C. […] After extensive washing in PBS/BSA/NaN₃, cells were subsequently incubated with 1:200 diluted PE-conjugated goat anti-mouse IgG Fcy-specific antibodies (Jackson ImmunoResearch) for 30 minutes at 4° C. After extensive washing in PBS/BSA/NaN₃, cells were fixed in 2% formaldehyde in PBS/BSA/NaN₃ for 30 minutes at 4° C.

In assay [4] the target is T3, chimeric human/cynomolgus monkey CD89-hotspots on HEK293F cells (human/cynomolgus chimera, UniProt P24071 22-287).
T3 construct: also called dThr58, Gln59; dArg73, Arg74, Lys76
T3 chain: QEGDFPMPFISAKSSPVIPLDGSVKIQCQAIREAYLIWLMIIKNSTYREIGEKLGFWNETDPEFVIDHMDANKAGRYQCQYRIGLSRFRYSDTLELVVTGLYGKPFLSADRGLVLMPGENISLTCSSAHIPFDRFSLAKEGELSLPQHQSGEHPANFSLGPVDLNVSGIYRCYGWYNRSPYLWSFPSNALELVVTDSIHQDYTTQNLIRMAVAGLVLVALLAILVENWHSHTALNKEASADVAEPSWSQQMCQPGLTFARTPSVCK
The assay can be described thus: FACS, transiently transfected HEK293F.

In assay [5] the target is T4, recombinant C-terminal polyhistidine-tagged human (extracellular) CD89 (Sino Biological) (human, UniProt P24071 22-227).
T4 construct: extracellular domain; bought protein; also called rhuCD89; soluble monomeric rhuCD89
The assay can be described thus: ELISA, antibody before serum IgA on coated rhuCD89; IgA detected. In general terms: An ELISA detects its analyte on a solid surface through an enzyme-linked reagent.
Protocol: After extensive washing with PBS/0.05% Tween 20, plates were blocked with PBS/0.05% Tween 20/1% BSA (Roche) for 1 hour at RT. Subsequently, plates were incubated with 25 µL titrated (in block buffer) purified mouse anti-human CD89 antibody/well for 30 minutes at RT. […] After extensive washing in PBS/0.05% Tween 20, 1:10,000 diluted HRP-conjugated streptavidin (Jackson ImmunoResearch) was added, and incubated for 1 hour at RT, followed by a ready-to-use solution of TMB substrate (Invitrogen) for colorimetric detection.

The target in assay [6] is T4, recombinant C-terminal …. The assay can be described thus: BLI (Octet RED96), biotinylated Ab on streptavidin tips, rhuCD89 analyte, 1:1 model. On the technique in general: BLI is a label-free optical method that tracks binding on a fibre tip over time.
Protocol: Equilibrium dissociation constants (KD) were determined using a 1:1 Langmuir binding model in Octet® RED96 software (ForteBio).

B1: CD89/IgA blocking mouse anti-human CD89-specific antibody 10E7 (antibody, V domains shown)
VH: EVQLVESGGGLVQPGGSLKLSCAASGLTFSSYGMSWVRQTPDKRLELVATINGNGDITYYPDSVKGRFTISRDNAKNTLYLQMSSLKSEDTAMYYCARDYDYDYAMDYWGQGTSVTVSS
VL: DIQMTQSTSSLSASLGDSVTISCRASQDIINYLNWYQQKPDGTVKLLIYYTSRLHSGVPSRFSGSGSGTEYSLTVSNLEKEDIATYFCQQGKTLPYTFGGGTKLEIK
notes: biotinylated in the Octet assay; also called mouse 10E7
The EC50 is the concentration at which the effect is half-maximal. For orientation: Kd means the concentration at which binding is half-saturated. The koff is the first-order rate constant of dissociation. The term kon denotes the rate constant with which the complex forms. As for B1, the EC50 in assay [1] was found to be 0.637 µg/mL. In addition, the “% blocking of PE-A3 binding” value in assay [2] was less than 25%. For the same molecule, the binding result in assay [3] is “no binding (tested: 10 µg/mL)”. Further, the binding result in assay [4] is listed as “no binding (tested: 10 µg/mL)”. Also, the “IC50 (read off the curve)” value in assay [5] was roughly 0.06 µg/mL. Further, in assay [6], the dissociation constant (Kd) was 1.67 nM, the koff came out at 0.00111 s⁻¹ and the kon came to 687000 M⁻¹ s⁻¹.

These data come from patent US20230242646A1 (JJP BIOLOGICS SP Z O O, published 2023).
